Key:
[1] = molecular target: amyloid precursor protein (APP), mouse (mouse (endogenous in C57BL/6 hippocampus))
[2] = molecular target: amyloid precursor protein (APP), mouse (mouse (endogenous in C57BL/6 hippocampus)); remark: listed apart in the source

reduction in NMDAR EPSCs in CA1 pyramidal neurons of infant mice with the APP C-terminal antibody Y188 (2.5 nM) in the recording pipette, compared with boiled Y188 [1]: 21.1%
effect of ifenprodil (5 μM, GluN2B antagonist) on NMDAR EPSCs in infant neurons previously incubated with the Y188 antibody against the APP C-terminal, versus the control condition [2]: 19.8%
Substance: GluN2B subunit of the NMDA receptor, mouse (from UniProt Q01097 27-1482)

From paper PMC10014064
